How the values were obtained:
[1] = Absorbance spectra assay of mecoprop degradation by ChD or CAC; assay type: biochemical; conditions: mecoprop 200 mg/L alone (no enzyme), 50 mM HEPES pH 7, one hour at 37° C.
Experimental: (§1) Small scale (1 mL) assays were performed to evaluate the ability of ChD and CAC to degrade MCPA-4 amine or mecoprop.
(§2) MCPA-4 amine and mecoprop have absorbance maxima (Amax) at approximately 230 and 280 nm. […] MCPA-4 amine or mecoprop end product generation is directly proportional to the degradation MCPA-4 amine or mecoprop, respectively.

[2] = Absorbance spectra assay of MCPA-4 amine degradation by ChD or CAC; assay type: biochemical; conditions: MCPA-4 amine 200 mg/L alone (no enzyme), 50 mM HEPES pH 7, one hour at 37° C.
Experimental: as §1, §2

soybean seedlings = assay: Spray of enzyme-treated dicamba solution onto soybean seedlings; assay type: in vivo; conditions: 208 μM dicamba, immobilized enzyme, 30° C., soybean seedlings, one week
Experimental: Salicylate monooxygenase (SM, SEQ ID NO: 21) and hydroxyphenylacetate monooxygenase (HPAM, SEQ ID NO: 30) were immobilized on particles. […] Aliquots (1 ml) were taken from incubated samples at 0 minutes, 10 minutes, 30 minutes, 1 hour, 5 hours, 24 hours and 30 hours after the introduction of SM and immediately frozen to stop the detoxification reaction. NADPH consumption was quantified by measuring loss of absorbance at 340 nm using a spectrophotometer. Results for SM are shown in panel A of FIG. 10 and results for HPAM are shown in panel A of FIG. 11. Consumption of NADPH is proportional to the degradation of dicamba.
Immediately after taking the absorbance measurements, the 1 ml aliquots were mixed with a nonionic organosilicone surfactant copolymer (0.1% SILWET L77) and 200 μL of the mixture was sprayed onto 2.5-week-old soybean seedlings (six plants per treatment group, on average). The use of the surfactant ensured even distribution of the solutions on the plants. Control plants were sprayed with water+surfactant alone or dicamba+surfactant alone. After one week, the degree of herbicide damage or the degree of protection from dicamba-induced injury (in plants treated with SM) was assessed visually.

lentil plants = assay: Lentil seeds coated with immobilized enzyme, grown in dicamba-containing soil; assay type: in vivo
Experimental: For each treatment group, eighteen lentil seeds were coated with immobilized salicylate monooxygenase (SM, SEQ ID NO: 21) or hydroxyphenylacetate monooxygenase (HPAM, SEQ ID NO: 30), or with a water-only control (H2O) or a control containing only the particles used for immobilization, without any enzyme (“Particle Alone”). […] 50 ml of water was selected as this is the saturation point of this soil at this scale. Herbicides were allowed to sit in the soil for 24 hours before planting of coated seeds. Germination rate was measured at one week and root and shoot lengths were measured after two weeks.
Further data illustrating the protective effects of salicylate monooxygenase (SM) and hydroxyphenylacetate monooxygenase (HPAM) on lentil plants grown in dicamba-containing soil are provided in FIGS. 6-9. Lentil seeds were treated as described above with water alone, particle alone, or enzyme immobilized on a particle. […] Growth (shoot and root length) was measured at two weeks.

[3] = Experimental: A Bacillus subtilis (A64) control reaction, which was supernatant with no SM1 enzyme was performed in parallel. The reactions were incubated at 37° C. with 400 rpm stirring for two hours. Aliquots of the reactions were collected at time 0 (T0), 1 hour, and 2 hours, and frozen at −80° C.
HPLC column (Kinetex® 5 μm C18 100 Å, LC Column 50×4.6 mm) was equilibrated for 15 minutes with 35% acetonitrile and 65% 10 mM ammonium acetate with 0.1% formic acid in water. A volume of 10 μL of each sample was injected into Waters 2695 Separations Module with a 2996 Photodiode Array Detector. Samples were run isocratically (35% acetonitrile and 65% 10 mM ammonium acetate with 0.1% formic acid in water) for 2 minutes. […] An average of 3 measurements was run for each treatment sample.
The HPLC results as reported in FIG. 2 are the average of 3 sample measurements.

soybean plants = assay: Trifoliate damage scoring of soybean treated with SM1-dicamba reaction products; assay type: in vivo; conditions: V1 soybean (Morsoy Xtra), 100 μL reaction product diluted 1:24 with 0.01% SILWET L-77 on trifoliate leaves, 6 plants; Time (hours) 2; scale 0-5
Excerpt: These SM1-dicamba degradation products were applied to soybean seedlings (variety, Morsoy Xtra). […] The plants were scored based on trifoliate damage using the scale as described in Table 27.

[4] = Sorbitol dehydrogenase enzyme activity (NADH production at 340 nm); assay type: biochemical; conditions: for enzyme activity level: NAD^+ and sorbitol, absorbance readings at 340 nm at 5 min after the start of the reaction; for regeneration of NADH (NADH production, 0-36 min): vs no enzyme control and background A64
Excerpt: To determine enzyme activity for sorbitol dehydrogenase in the production samples, reactions were set up with NAD^+, sorbitol and the sorbitol dehydrogenase enzyme collected in supernatant derived from the Bacillus subtilis A64 cultures. Absorbance at 340 nm was monitored with a BioTek SYNERGY HTX plate reader (BioTek Industries Inc.). […] The extinction coefficient of NADH at 340 nm (6220 M^−1 cm^−1) was used to estimate the enzyme activity of the sorbitol dehydrogenase enzyme. The enzyme activity was compared to commercially available sorbitol dehydrogenase enzyme produced from sheep liver (S-3764, Sigma-Aldrich).
NADH production was measured and reported as an average of 7 measurements and reported over a time series (0-36 min.) for the sorbitol dehydrogenase GutB (SDH GutB), the sorbitol dehydrogenase from sheep liver (SDH control) and compared to the A64 filtrate and no enzyme treatments both used as negative controls in the enzyme assay.

Molecule: Cc1cc(Cl)ccc1OC(C)C(=O)[O-].[K+] (racemic) [Mecoprop, Potassium (RS)-2-(2-methyl-4-chlorophenoxy)propionate, reference compound]
- Absorbance Maxima at Wavelength (λ) 230 [1]: 1.723
- Absorbance Maxima at Wavelength (λ) 252 [1]: 0.2562
- Absorbance Maxima at Wavelength (λ) 280 [1]: 1.214

Molecule: Cc1cc(Cl)ccc1OCC(=O)O [MCPA-4-Amine, 2-methyl-4-chlorophenoxyacetic acid, reference compound]
- Absorbance Maxima at Wavelength (λ) 230 [2]: 1.739
- Absorbance Maxima at Wavelength (λ) 252 [2]: 0.2573
- Absorbance Maxima at Wavelength (λ) 280 [2]: 1.506

B1: HPAM: hydroxyphenylacetate monooxygenase from Bacillus cereus BGSC 6E1, amino acid SEQ ID NO: 30 (protein, listed as Bacillus cereus)
chain: MAIRTGEQYIEGLRKRNPEIWIGGRKVTDVVNEDVFREPIIQIANLYDMQHNPEYQDKITHICEETGERVSNAFLVPRNYEDLKVRRELFEVWAKATYGLMGRTPDFLNVTVTSMASNSWFFEKFNPEWGANIKNYYKHIRDNDLFLTHAIINPQNDRSKASHQQEDETMHLGVVSETAEGMYVSGAKMLATLAPITDEVIIYSYPSFKPGDERHAISFAVPIDAPGLRILCREPMQDGKRSLFDHPLASRFEEMDALLVFHNVFIPWDKVFIYQSVEAGNQLYPKTGIGHQPAHQSGVRGLVKLSFAAEVAMKLADSIGVDGFLNVQNQLAELMQDVETIRALLQVAEYEYETNSYGEVIPARLPLDTIRSLLPKMYPRAIEIIQTIGAGGLLMSPTGADFMNPEIHDDMQKYYIGREGVSSEERVRLFKLAWDLCGEAFGQRLLQYERYYSGDPVRKMGMFYNAYKKQQTFSLVNNALQSSSSEGALS
- incubation time of enzyme with dicamba giving plants equivalent to the water control (soybean seedlings): 30 min
- germination rate (lentil plants; lentil seeds coated with immobilized enzyme, soil with dicamba 0.1× or […] label rate, one week, vs water and particle-alone controls): positive effect
- shoot length (lentil plants; two-week-old lentil, soil with dicamba 0.1× label rate (0.588 mg/L), vs water only or particle only controls (FIG. 6, FIG. 8)): longer shoot lengths

B2: SM1: salicylate monooxygenase from Bacillus cereus strain B377, amino acid SEQ ID NO: 251 (nucleotide SEQ ID NO: 243) (protein, listed as Bacillus cereus)
chain: MGKEKKYDAIVVGAGPVGLVAGLALQKKGISTLVIEADSFGRPRPGSRAIYLHSASLKLLEETSEGLGFTLAHNGIIWPVKRTFYKGKEVYVRDYGKDENLKFNRLPHFTALHQDEIEKHMYEACIKEGVEFLWDAPVKKLHITDSGVELTITNDEILKAQYVIGCDGARSIVREEAGLTFEGPRTADTFIVVDAKEDETDPLPLERIFHYQHPAMEGRNVMFVPFKGGWRIDLQLLESDNPDDYTNIESVKTWLPKVMDAKYAERITWVSSYRFHQVVANSFTDEKRRVLLAGEAAHLFAPFGARGLNSGIPDAVLAARGIEKALHSHSEEERVEAIEAAAKERRIAAQWNRDASTTALHHLQGSSPEMNMKRDIAASLVSIVPRLGRWLDEGPYGPKFGPPELTTKY
- Percent Dicamba Concentration Relative to T0 control ([3]; HPLC, Time 2 hours): 84.3%
- dicamba concentration (HPLC) ([3]; dicamba 100 ppm, 250 μL SM1 enzyme, 0.5 mM NADH, HEPES pH 7.0, 1 hour of incubation (FIG. 17)): decreased concentrations
- decrease in dicamba concentration (HPLC) ([3]; dicamba 100 ppm, 250 μL SM1 enzyme, 0.5 mM NADH, HEPES pH 7.0, 2 hours of incubation (FIG. 17)): approximately 50%
- average trifoliate damage score (soybean plants): 2.8

B3: SDH control: commercially available sorbitol dehydrogenase enzyme produced from sheep liver (S-3764, Sigma-Aldrich) (protein, UniProt P07846 1-354, looked up)
Sorbitol dehydrogenase: AKPAAENLSLVVHGPGDLRLENYPIPEPGPNEVLLKMHSVGICGSDVHYWQGRIGDFVVKKPMVLGHEASGTVVKVGSLVRHLQPGDRVAIQPGAPRQTDEFCKIGRYNLSPTIFFCATPPDDGNLCRFYKHNANFCYKLPDNVTFEEGALIEPLSVGIHACRRAGVTLGNKVLVCGAGPIGLVNLLAAKAMGAAQVVVTDLSASRLSKAKEVGADFILEISNESPEEIAKKVEGLLGSKPEVTIECTGVETSIQAGIYATHSGGTLVLVGLGSEMTSVPLVHAATREVDIKGVFRYCNTWPMAISMLASKSVNVKPLVTHRFPLEKALEAFETSKKGLGLKVMIKCDPSDQNP
- enzyme activity level [4]: 1447 U/mL
- regeneration of NADH (NADH production, 0-36 min) [4]: greater regeneration of NADH

B4: GutB sorbitol dehydrogenase: sorbitol dehydrogenase from Bacillus subtilis strain 168, SEQ ID NO: 288, cofactor-regenerating enzyme (protein, listed as Bacillus subtilis)
chain: MTHTVPQNMKAAVMHNTREIKIETLPVPDINHDEVLIKVMAVGICGSDLHYYTNGRIGNYVVEKPFILGHECAGEIAAVGSSVDQFKVGDRVAVEPGVTCGRCEACKEGRYNLCPDVQFLATPPVDGAFVQYIKMRQDFVFLIPDSLSYEEAALIEPFSVGIHAAARTKLQPGSTIAIMGMGPVGLMAVAAAKAFGAGTIIVTDLEPLRLEAAKKMGATHIINIREQDALEEIKTITNDRGVDVAWETAGNPAALQSALASVRRGGKLAIVGLPSQNEIPLNVPFIADNEIDIYGIFRYANTYPKGIEFLASGIVDTKHLVTDQYSLEQTQDAMERALQFKNECLKVMVYPNR
- enzyme activity level [4]: 207 U/mL
- regeneration of NADH (NADH production, 0-36 min) [4]: sufficient ability to reduce NAD to NADH
